Laboratory results taken from patent US20040180389A1.

Biological target: murine GM-CSF receptor (on FDC-P1 cells) (murine) (UniProt Q00941)
Test: cell-based or functional assay

Chain of UniProt Q00941 (Q00941 30-388, chain 1 of 2): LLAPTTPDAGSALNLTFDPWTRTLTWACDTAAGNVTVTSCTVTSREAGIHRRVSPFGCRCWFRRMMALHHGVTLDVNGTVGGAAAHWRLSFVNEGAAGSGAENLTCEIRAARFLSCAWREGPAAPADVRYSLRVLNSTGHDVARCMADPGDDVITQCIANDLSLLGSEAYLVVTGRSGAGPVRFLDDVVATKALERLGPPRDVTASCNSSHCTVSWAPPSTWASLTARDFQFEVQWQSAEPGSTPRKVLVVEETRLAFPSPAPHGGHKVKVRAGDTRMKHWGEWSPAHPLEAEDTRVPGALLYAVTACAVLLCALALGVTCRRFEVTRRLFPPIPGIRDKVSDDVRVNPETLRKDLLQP
Chain of UniProt Q00941 (P26955 23-896, chain 2 of 2, further chain): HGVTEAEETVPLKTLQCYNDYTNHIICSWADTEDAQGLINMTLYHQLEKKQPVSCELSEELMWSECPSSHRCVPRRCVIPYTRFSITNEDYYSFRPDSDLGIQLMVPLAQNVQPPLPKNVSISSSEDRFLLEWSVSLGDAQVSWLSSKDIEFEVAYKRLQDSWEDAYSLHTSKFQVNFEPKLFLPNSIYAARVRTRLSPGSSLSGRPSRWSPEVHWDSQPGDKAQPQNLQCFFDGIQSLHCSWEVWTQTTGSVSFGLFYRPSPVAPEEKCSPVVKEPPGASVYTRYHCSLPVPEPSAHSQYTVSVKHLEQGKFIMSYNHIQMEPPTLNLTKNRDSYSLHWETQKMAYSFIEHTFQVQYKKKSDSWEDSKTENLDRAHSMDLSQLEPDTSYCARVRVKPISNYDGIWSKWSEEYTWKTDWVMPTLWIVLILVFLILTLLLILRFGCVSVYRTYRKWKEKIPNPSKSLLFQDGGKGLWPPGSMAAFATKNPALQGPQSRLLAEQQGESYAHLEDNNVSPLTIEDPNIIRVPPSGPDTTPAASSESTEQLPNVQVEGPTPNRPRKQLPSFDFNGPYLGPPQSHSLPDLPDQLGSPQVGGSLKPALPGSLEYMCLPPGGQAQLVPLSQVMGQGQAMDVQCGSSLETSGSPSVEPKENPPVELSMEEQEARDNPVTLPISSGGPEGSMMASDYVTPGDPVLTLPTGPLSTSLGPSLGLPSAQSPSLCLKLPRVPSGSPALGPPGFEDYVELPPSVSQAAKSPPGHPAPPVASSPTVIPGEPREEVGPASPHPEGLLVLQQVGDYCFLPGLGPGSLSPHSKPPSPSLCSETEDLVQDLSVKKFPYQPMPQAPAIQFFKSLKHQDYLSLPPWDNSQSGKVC

proliferation of FDC-P1 cells (Biotrak BrdU cell proliferation ELISA), 10 ng GM-CSF equivalent per well: 25%
Substance: GPI-GM-CSF (murine GM-CSF fused to the S. cerevisiae Gas1 GPI modification signal sequence, expressed in yeast clone SC-GM-GPI) (from UniProt P01587 18-141; P22146 474-528) (other; the values are: proliferation increase vs soluble GM-CSF)
